# Reference: paper PMC12027964, “Centrifugation-Based Purification Protocol Optimization Enhances Structural Preservation of Nucleopolyhedrovirus Budded Virion Envelopes” (Insects, 2025)
# B1: GP64 envelope fusion protein of Autographa californica multiple nucleopolyhedrovirus (AcMNPV) (natural protein)
# chain: AEHCNAQMKTGPYKIKNLDITPPKETLQKDVEITIVETDYNENVIIGYKGYYQAYAYNGGSLDPNTRVEETMKTLNVGKEDLLMWSIRQQCEVGEELIDRWGSDSDDCFRDNEGRGQWVKGKELVKRQNNNHFAHHTCNKSWRCGISTSKMYSRLECQDDTDECQVYILDAEGNPINVTVDTVLHRDGVSMILKQKSTFTTRQIKAACLLIKDDKNNPESVTREHCLIDNDIYDLSKNTWNCKFNRCIKRKVEHRVKKRPPTWRHNVRAKYTEGDTATKGDLMHIQEELMYENDLLKMNIELMHAHINKLNNMLHDLIVSVAKVDERLIGNLMNNSVSSTFLSDDTFLLMPCTNPPAHTSNCYNNSIYKEGRWVANTDSSQCIDFSNYKELAIDDDVEFWIPTIGNTTYHDSWKDASGWSFIAQQKSNLITTMENTKFGGVGTSLSDITSMAEGELAAKLTSFMFGHVVNFVIILIVILFLYCMIRNRNRQY
# notes: Native viral protein, no tag; also called prefusion GP64; Frac B; source: purified from recombinant AcMNPV budded virions produced in Sf9 cells (1% DDM / 0.1% CHS extraction, Superdex 200 SEC)
# Molecular target: the molecule itself
# Test: cryo-EM structure; GP64 solubilised from purified BV particles with DDM/CHS, SEC fraction B in TN buffer (50 mM Tris-HCl pH 8, 150 mM NaCl) with 0.02% DDM and 0.002% CHS, about 1 mg/mL; single-particle reconstruction (7913 particles, 15 Å); prefusion GP64 model PDB 8YG6 fitted into the map
protein,measurement,value
B1,stoichiometry N,3
